The values below come from a protein production outcome set (Wang et al. 2014).

A short description of the data set: label from the status in PepcDB records.
For “MGHHHHHHSHSKKPYIVTIACTKGGSAKSTNAANIGAFCADHGLRTLLIDTDTQPTLSSYYSLAKTAPGGIYEFLLQRDVEPSHIVSQTSIKNLDLIQSNDPSNNVSHMLRNAPDGSIRFSHLIKSINNYDVIVIDTRGTRDITVDMSVLAADILFCPILPQILSAKEFIRGTIGMYQDLQTFESFGFKLPPLKAIANGVDNTNDVKFVMQKLHTLFANTFDESKTLLDFSIPYHVAYREAVTYALPVYRHSAVEYPVMQQLCC”, the protein production entry is on record as “failed”.

As to “MGHHHHHHSHSSEVNATEEMSTLVNYIEPVKFKSFEAARKRNKCFEMSSFVETKAMEQLTKSPMEFVEYNKQQLSRIYPKGTRVDSSNYMPQLFWNVGCQLVALNFQTLDVAMQLNAGVFEYNGRSGYLLKPEFMRRPDKSFDPFTEVIVDGIVANALRVKVISGQ”, the protein production entry is on record as “failed”.

For “MGHHHHHHSHVAKVSQREEMVKKCLGELTEVCKSLGKVFGVHYFNIFNTVTLKKLAESLSSDPEVLLQIDGVTEDKL”, the protein production result is “failed”.

For the sequence “MGHRHQFGHGRRGGALMERALIIGASGWGREVLEQMRGDAGHGKDWLIGGFLDSRTNILDSYGVDTPIIGDPMNYLPQPDDVFVCAMGNPYDRHRYALPILQKGGRFIPICTDVRLGRRVHFGQGCFFGLMVHSGPDVRIGDFVTIHAQSMLGHDVRIGDYVHVGAMAFMGGGVQLGDFVTVHPRATLMPGVKVGDGAVIGAGAVVLKDVPAGATVFGNPAKIVFNKNIPTD”, the protein production entry is recorded as “failed”.

For the sequence “MGIFEPFRAIGYITSTVPFSVQRLGTETFVTVSVGKAFQIYNCAKLNLVIISPQLPKKIRALASYRDYTFVAFGNEIAVFRRAHQVATWSKHVAKVDLLLVFGEHVLSLDVEGNMFIWAFKGIEEHLAPIGNLQLTGKFTPTSIVHPDTYLNKVLVGSQEGPLQLWNINTKKMLYQFKGWGSSVTSCVSSPALDVVAIGCADGKIHVHNIKLDEEIVTFEHASRGAVTALSFSTDGRPLLASGGSFGVISIWNLNKKRLQSVIRDAHDSSIISLNFLANEPVLMSASADNSLKMWIFDTNDGDPRLLRFRSGHSAPPLCIRFYSNGRHILSAGQDRAFRLFSVIQEQQSRELSQRHISRRAKKLRLKEEELKLKPVVSFDCAEIRERDWCNVVTCHMDTAEAYVWRLQNFVLGEHILKPCPENPTPIKACAISACGNFAVVGTAGGWIERFNLQSGISRGSYFDMSEKRRYAHDGEVIGVACDSTNTLMISAGYHGDLKVWDFKKRELKSQWDVGCSLVKIVYHRVNGLLATVADDFVIRLYDVVTLKMVREFRGHTDRITDLCFSEDGKWVISSSMDGSLRIWDVILAKQIDGVHVDVPITALSLSPNMDVLATAHSDQNGVYLWVNQSMFSGLPSVESYASGKDVVNVKLPSVSALTSSEADDDMDRQVLENSEALQASSFSISQKQIPELVTLSLLPKSQWQSLINLDIIKARNKPIEPPKKPEKAPFFLPSIPSLSGDILFKANDSEADGENEENNKKDQNSMKNFDALESPFSKHLKSSWDSKHFLDFTNYMKSLSPSALDMELRMLEIIDEDVEEELIKRPEFILIGQLLDYFINEVSCKNDFEFMQAVVKLFLKIHGETIRCHPSLQEKAKKLLETQSLVWQKMEKLFQSTRCIVTFLSNSQF”, the protein production result is given as “failed”.

Consider “MGIKEKEIELETLKREIAQAEASLEQDFIKYMVDKTNEKVEDLFFSNKPEFYRFVFTEQNNYLREKLTDKVGRAMDLSDEIQRDKTENESLENGTKFKKRFVFELQNDLIFLRTKRNTYSAKTEHENFQERLLAAKDTFRLIKANDFKTKIYPYQITLRLKTKHIIVFRWLKKEIIKRFVKKDLFTETLSIKITDKKGQKYALIANYNHASDIIELMLDDKTYTTTLYYQKPLFDLIKNSNFNLTIKDNTLEINQAKKRLFV”, for which the protein production result was “failed”.

As to “MGIKQYSQEELKEMALVEIAHELFEEHKKPVPFQELLNEIASLLGVKKEELGDRIAQFYTDLNIDGRFLALSDQTWGLRSWYPYDQLDEETQPTVKAKKKKAKKAVEEDLDLDEFEEIDEDDLDLDEVEEELDLEADDFDEEDLDEDDDDLEIEEDIIDEDDEDYDDEEEEI”, the protein production entry is “failed”.

As for “MGIKQYSQEELKEMALVEIAHELFEEHKKPVPFQELLNEIASLLGVKKEELGDRIAQFYTDLNIDGRFLALSDQTWGLRSWYPYDQLDEETQPTVKAKKKKAKKAVEEDLDLDEFEEIDEDDLDLDEVEEELDLEADDFDEEDLDEDDDDLEIEEDIIDEDDEDYDDEEEEIK”, the protein production result is “not failed”.

As to “MGILDKVKNLLSQNADKVETVINKAGEFVDEQTQGNYSDAIHKLHDAASNVVGMSDQQS”, the protein production result was “not failed”.

As to “MGIRNSKTFTSTDIATYYDVSEDHYMYFWDLNQSHSLHYGYWDASTKTFREALANINRVLAEKASITAGTRVLDAGCGVGGSSIWLAKNKQANVTGITVSKKQAARANTSAAAVNPGGTAVFDVQDYTNTPYHSESFDVVWAIESVCHAANKEDFIKEAYRLLKPGGQLIMADFFIVKDGNADDQRSIDAWGHGWAVPFFEKKDAFQHMLLKAGFNTADMIDSTEHIRRSAKRLYYAFFPGWIISKLYNLVNRRTTEFSKNNVYTAYYQYKTLKKELWKYYIVHAKK”, the protein production result is “failed”.

For “MGISVASSNKPNNYDRYFNIYGVVIAAVLAAIAAIEIFEIFELPFEKYFAGIDIASIFSFTTKVVSDSSYVGIFILMTLESMFIPIPSEVILPLSGFLVYQGSFNFAVVLADTIIASMVGSFIDYFLGLYLGRPIIVKILSYFSISEDSLSRAETWIDKMGSFSVFLARFIPGIRSLISLPAGMLKMKMWLFALMTFLGSFIWSFSLIYLGYSAGPYWSVAVKNFSALLDQIIIDVVFLASLAYIFYYIFLKIKRRQHALD”, the protein production result is recorded as “failed”.

Take “MGKIMEWAARSDHLGGIPRNTVIMAVSAFAKAVANLCNKSSVHNADTLMNLVQSRPPGVPLITVSNHMSTLDDPVMWGAFKGLLSLDPELARWVLAAEDICFRNPIFSYIFRTGKCIPITRGGGIYQENMNEALQRLKDGSWLHTFPEGKVFQDDVPIRRLKWGTASLIARSPVTPIVLPIIHRGFEEMMPENYNNGRRPLVPLPNKHLKVVVGEPIEFDVPMMVETAVLDSRHVTPPLQEVKWPVLTSAGQVLDETAQRHLYIALSEKIQSSLETLRLLAKRL”: the protein production result is given as “failed”.

On to “MGKKELKRGLVVDREAQMIGVYLFEDGKTYRGIPRGKVLKKTKIYAGDYVWGEVVDPNTFAIEEVEERKNLLIRPKVANVDRVIIVETLKMPEFNNYLLDNMLVVYEYFKVEPVIVFNKIDLLNEEEKKELERWISIYRDAGYDVLKVSAKTGEGIDELVDYLEGFICILAGPSGVGKSSILSRLTGEELRTQEVSEKTERGRHTTTGVRLIPFGKGSFVGDTPGFSKVEATMFVKPREVRNYFREFLRYQCKYPDCTHTNEPGCAVKEAVKNGEISCERYKSYLKIIKVYLEEIKELCRED”, for which the protein production result is given as “not failed”.

On to “MGKKQKMKKAAQMATAAEKLKTAAEKSKTAADNVVAKEKPAEEASPSPSGSGKKGKPKATQKPNVAKALQKEISSSEDALDVKNKPPAGFSGAKGKPHIMGQMDPAYRNKIKKLMSLAKQLPPNVFSLPNSQKEEGASAAKSCVVEDDQSTDSDDAPDLVEADPKETQPDEQGQLGTVAVRTREVSKQSRGERKARRILMKLDLKPMENVARVTMKKGKNILLYIDQPDVYRVAHSSTYIFFGEICVEDTSTTSVASQAAVKAAERFRGTSPAGRQGNEDGKAPGEESPHDDDDDENDGEDADAMGLHAKDIELVQMQAACSRKKAIQALLKNDNDVVNAIMALTVG”, for which the protein production entry was “failed”.

For “MGKLLFVDIGGTLLDYSNEVPRSAVDAIRKARAKGHRVYLSSGRSSAEVTSQLWDIGVDGLIGANGGYVESAQESVFHRRLSGEETRHIVEWLYNRGLEFYLESNNGLYASRGFREASKPVLSRLSEKTDVTVDSMYPDMFWGASLDRDDVNKISYIFNSQEDLDAAREAFPNLEHTTWGGQTGALFGTIGVSVNKKIGVDRLLKYLNADRANTIAFGDSDEDLSLFEASAYGVAMGEATESLKAAADLVTDAVGQDGLRNAFLKLELIDA”, the protein production entry was “failed”.
